This is an account of results in doi:10.1101/2021.02.16.431366, “Functional basis for calmodulation of the TRPV5 calcium channel” (bioRxiv, 2021).

Series [1] deals with the molecule itself. As to the kind of experiment: single molecule photobleaching counting (smPB, TIRF microscopy); living HEK293 cells with low expression; bleaching steps of confined spots at the cell surface counted and fitted to a binomial distribution (eGFP folding probability 72%); CaM-eGFP counted in spots positive for mCherry-TRPV5, in presence and absence of extracellular Ca2+.

Series [2] has as its target T1, CaM agarose resin (UniProt P62157 1-149).
T1 construct: calmodulin coupled to agarose; Immobilised on agarose by the supplier; source: bought: Sigma Aldrich (CaM agarose resin)
As to the kind of experiment: pull-down; competition: 0-100 µM TRPV5 peptide added to the CaM agarose pull-down of GFP-TRPV5 lysate; TRPV5 band semi-quantified and fitted (non-linear sigmoidal) against log peptide concentration; Ca2+ concentration not stated. To be noted: both partners purified.

Where no end group is shown, it is not given here.

B1: GFP-TRPV5 (natural protein, rabbit, UniProt Q9XSM3 1-730, looked up)
chain: MGACPPKAKGPWAQLQKLLISWPVGEQDWEQYRDRVNMLQQERIRDSPLLQAAKENDLRLLKILLLNQSCDFQQRGAVGETALHVAALYDNLEAATLLMEAAPELAKEPALCEPFVGQTALHIAVMNQNLNLVRALLARGASVSARATGAAFRRSPHNLIYYGEHPLSFAACVGSEEIVRLLIEHGADIRAQDSLGNTVLHILILQPNKTFACQMYNLLLSYDEHSDHLQSLELVPNHQGLTPFKLAGVEGNTVMFQHLMQKRKHVQWTCGPLTSTLYDLTEIDSWGEELSFLELVVSSKKREARQILEQTPVKELVSFKWKKYGRPYFCVLASLYILYMICFTTCCIYRPLKLRDDNRTDPRDITILQQKLLQEAYVTHQDNIRLVGELVTVTGAVIILLLEIPDIFRVGASRYFGQTILGGPFHVIIITYASLVLLTMVMRLTNMNGEVVPLSFALVLGWCSVMYFARGFQMLGPFTIMIQKMIFGDLMRFCWLMAVVILGFASAFHITFQTEDPNNLGEFSDYPTALFSTFELFLTIIDGPANYSVDLPFMYCITYAAFAIIATLLMLNLFIAMMGDTHWRVAQERDELWRAQVVATTVMLERKMPRFLWPRSGICGYEYGLGDRWFLRVENHHDQNPLRVLRYVEAFKCSDKEDGQEQLSEKRPSTVESGMLSRASVAFQTPSLSRTTSQSSNSHRGWEILRRNTLGHLNLGLDLGEGDGEEVYHF
notes: TRPV5, rabbit, cloned into a pcDNA5 vector with an N-terminal GFP tag; also called eGFP-TRPV5; source: HEK293, transfected, in lysate; in living cells for single molecule photobleaching; not shown: GFP, N-terminal, kept
One may read the stoichiometry N as the number of molecules, sites or subunits per partner or assembly. As to B1, the “stoichiometry N” value in series [1] was found to be 4.

B2: TRPV5 distal helix peptide (peptide)
peptide: {Biotin‑C6}-QSSNSHRGWEILRRNTLGHL
notes: TRPV5 distal C-terminal helix; the limits are counted from W702, the residue changed in the printed W702A peptide; also called distal peptide; distal TRPV5 peptide; source: synthetic peptide, bought: EMC microcollections GmbH
As usually defined, the IC50 is the concentration that inhibits the measured activity by half. Take B2: the IC50 in series [2] was determined as 5.2 µM.
